# Test results reported in patent publication US20230365658A1 (LAWRENCE LIVERMORE NATIONAL SECURITY, published 2023).
# How the values were obtained:
# [1] = target: T1, SARS-CoV-2 spike (S) glycoprotein, Omicron BA.2 (SARS-CoV-2, UniProt P0DTC2 14-1273); test: cell-based or functional assay
# [2] = target: T2, SARS-CoV-2 spike (S) glycoprotein, Omicron BA.1 (SARS-CoV-2, UniProt P0DTC2 14-1273); test: cell-based or functional assay
# [3] = target: T1, SARS-CoV-2 spike (S) glycoprotein, …; test: cell-based or functional assay; remark: listed apart in the source
# [4] = target: T3, SARS-CoV-2 spike (S) glycoprotein, Omicron BA.4 (SARS-CoV-2, UniProt P0DTC2 14-1273); test: cell-based or functional assay
# [5] = target: SARS-CoV-2 spike (S) glycoprotein, Omicron BA.2.75 (SARS-CoV-2, UniProt P0DTC2 14-1273); test: cell-based or functional assay
# [6] = target: SARS-CoV-2 spike (S) glycoprotein, Omicron BA.2.12.1 (SARS-CoV-2, UniProt P0DTC2 14-1273); test: cell-based or functional assay
# [7] = target: SARS-CoV-2 spike (S) glycoprotein, Omicron BA.5 (SARS-CoV-2, UniProt P0DTC2 14-1273); test: cell-based or functional assay
# [8] = target: T4, SARS-CoV-2 spike (S) glycoprotein, D614G (SARS-CoV-2, UniProt P0DTC2 14-1273); test: cell-based or functional assay
# [9] = target: T2, SARS-CoV-2 spike (S) glycoprotein, …; test: cell-based or functional assay; remark: listed apart in the source
# [10] = target: T5, SARS-CoV-2 spike (S) glycoprotein, Omicron BA.1.1 (SARS-CoV-2, UniProt P0DTC2 14-1273); test: cell-based or functional assay
# [11] = target: T5, SARS-CoV-2 spike (S) glycoprotein, …; test: cell-based or functional assay; remark: listed apart in the source
# [12] = target: T3, SARS-CoV-2 spike (S) glycoprotein, …; test: cell-based or functional assay; remark: listed apart in the source
# [13] = target: SARS-CoV-2 spike (S) glycoprotein, Delta (B.1.617.2) (SARS-CoV-2, UniProt P0DTC2 14-1273); test: cell-based or functional assay
# [14] = target: SARS-CoV-2 spike (S) glycoprotein, Omicron BA.5.5 (SARS-CoV-2, UniProt P0DTC2 14-1273); test: cell-based or functional assay
# [15] = target: T2, SARS-CoV-2 spike (S) glycoprotein, …; test: cell-based or functional assay; remark: listed apart in the source
# [16] = target: T5, SARS-CoV-2 spike (S) glycoprotein, …; test: cell-based or functional assay; remark: listed apart in the source
# [17] = target: T1, SARS-CoV-2 spike (S) glycoprotein, …; test: cell-based or functional assay; remark: listed apart in the source
# [18] = target: T3, SARS-CoV-2 spike (S) glycoprotein, …; test: cell-based or functional assay; remark: listed apart in the source
# [19] = target: T4, SARS-CoV-2 spike (S) glycoprotein, D614G; test: cell-based or functional assay; remark: listed apart in the source
# [20] = target: T2, SARS-CoV-2 spike (S) glycoprotein, …; test: cell-based or functional assay; remark: listed apart in the source
# [21] = target: T5, SARS-CoV-2 spike (S) glycoprotein, …; test: cell-based or functional assay; remark: listed apart in the source
# [22] = target: T6, SARS-CoV-2 Spike-RBD, Delta (SARS-CoV-2, UniProt P0DTC2 319-541); test: Gyrolab immunoassay, IgG titrated on Spike-RBD, relative binding (FI)
# T6 construct: domain: RBD; also called Delta RBD
# [23] = target: T6, SARS-CoV-2 Spike-RBD, Delta; test: Gyros full-curve immunoassay, mAb titrated on RBD, relative binding (FI)
binder,measurement,setting,value
"mAb_RBD_2130_FAB_20211231_00199 (antibody, V domains shown) VH: EVQLVESGGGLVKPGGSLRLSCAASGFTFRDVWMSWVRQAPGKGLEWVGRIKSKIDGGTTDYAAPVKGRFTISRDDSKNTLYLQMNSLKTEDTAVYYCTTAGSYYYDTVGPGLPEGKFDYWGQGTLVTVSS VL: not shown",pseudovirus neutralization IC50,[1],1.11 ng/mL
same,pseudovirus neutralization IC50,[2],556 ng/mL
"mAb_v2130Vanderbilt_184_20220114_00112 (antibody, V domains shown) VH: EVQLVESGGGLVKPGGSLRLSCAASGFTFRDVWMSWVRQAPGKGLEWVGRIKSKIDGGTTDYAAPVKGRFTISRDDSKNTLYLQMNSLKTEDTAVYYCTTAGSYYYDTVGPELPEGKFDYWGQGTLVTVSS VL: not shown","authentic virus neutralization IC50 (FRNT, Vero-TMPRSS2)",[3],< 10 ng/mL
same,"authentic virus neutralization IC50 (FRNT, Vero-TMPRSS2)",[4],< 10 ng/mL
same,fold improvement of pseudoviral neutralization over COV2-2130,[5],90 fold
same,pseudoviral neutralization IC50,[5],1.9 ng/mL
same,"authentic virus neutralization IC50 (FRNT, Vero-TMPRSS2)",[6],< 10 ng/mL
same,"authentic virus neutralization IC50 (FRNT, Vero-TMPRSS2)",[7],< 10 ng/mL
same,"authentic virus neutralization IC50 (FRNT, Vero-TMPRSS2)",[8],< 10 ng/mL
same,"authentic virus neutralization IC50 (FRNT, Vero-TMPRSS2)",[9],< 10 ng/mL
same,"authentic virus neutralization IC50 (FRNT, Vero-TMPRSS2)",[10],< 10 ng/mL
same,pseudovirus neutralization IC50,[1],0.852 ng/mL
same,pseudovirus neutralization IC50,[2],1.14 ng/mL
same,pseudovirus neutralization IC50,[11],3.21 ng/mL
same,authentic virus neutralization IC50 (FRNT),[12],7.47 ng/mL
same,authentic virus neutralization IC50 (FRNT),[13],33.9 ng/mL
same,authentic virus neutralization IC50 (FRNT),[14],5.29 ng/mL
same,authentic virus neutralization IC50 (FRNT),[15],5.53 ng/mL
same,authentic virus neutralization IC50 (FRNT),[16],39.2 ng/mL
same,normalized pseudoneutralization IC50,[17],0.985 ng/mL
same,normalized pseudoneutralization IC50,[18],0.779 ng/mL
same,normalized pseudoneutralization IC50,[19],4.08 ng/mL
same,normalized pseudoneutralization IC50,[20],2.56 ng/mL
same,normalized pseudoneutralization IC50,[21],6.25 ng/mL
"mAb_v2130JustStableLines_20220111_00002 (antibody, V domains shown, also called LLNL010) VH: EVQLVESGGGLVKPGGSLRLSCAASGFTFRDVWMSWVRQAPGKGLEWVGRIKSKDDGGTTDYAAPVKGRFTISRDDSKNTLYLQMNSLKTEDTAVYYCTTAGSYYYDTVGPGLPEGKFDYWGQGTLVTVSS VL: not shown",pseudovirus neutralization IC50,[1],1.15 ng/mL
same,pseudovirus neutralization IC50,[2],339 ng/mL
same,normalized pseudoneutralization IC50,[17],1.47 ng/mL
same,normalized pseudoneutralization IC50,[18],4.69 ng/mL
same,normalized pseudoneutralization IC50,[19],4.92 ng/mL
same,normalized pseudoneutralization IC50,[20],34.8 ng/mL
same,normalized pseudoneutralization IC50,[21],> 10000 ng/mL
same,EC50 (read off the curve),[22],~2000 ng/mL
same,EC50 (read off the curve),[23],~2000 ng/mL
"v2130_upsample_20220121_00009 (antibody, V domains shown) VH: EVQLVESGGGLVKPGGSLRLSCAASGFTFRDVWMSWVRQAPGKGLEWVGRIKSKIDGGTTDYAAPVKGRFTISRDDSKNTLYLQMNSLKTEDTAVYYCTTAGSYYDDTVGPGLPEGKIDYWGQGTLVTVSS VL: not shown",binding result,[23],no binding (tested: about 150 ug/ml)
"mAb_v2130Vanderbilt_184_20220114_00111 (antibody, V domains shown, also called LLNL198) VH: EVQLVESGGGLVKPGGSLRLSCAASGFTFRDVWMSWVRQAPGKGLEWVGRIKSKIDGGTTDYAAPVKGRFTISRDDSKNTLYLQMNSLKTEDTAVYYCTTAGSYYYDTVGPELPEGKFDYWGQGTLVTVSS VL: not shown",pseudovirus neutralization IC50,[1],0.0392 ng/mL
same,pseudovirus neutralization IC50,[2],118 ng/mL
same,pseudovirus neutralization IC50,[11],603 ng/mL
same,normalized pseudoneutralization IC50,[17],0.162 ng/mL
same,normalized pseudoneutralization IC50,[18],34.3 ng/mL
same,normalized pseudoneutralization IC50,[19],3.02 ng/mL
same,normalized pseudoneutralization IC50,[20],32 ng/mL
same,normalized pseudoneutralization IC50,[21],4030 ng/mL
same,EC50 (read off the curve),[22],~1000 ng/mL
same,EC50 (read off the curve),[23],~1000 ng/mL
"v2130_upsample_20220121_00298 (antibody, V domains shown) VH: EVQLVESGGGLVKPGGSLRLSCAASGFTFRDVWMSWVRQAPGKGLEWVGRIKSKEDGGTTDYAAPVKGRFTISRDDSKNTLYLQMNSLKTEDTAVYYCTTAGSYYHDTVGPGLPEGKFDYWGQGTLVTVSS VL: not shown",pseudovirus neutralization IC50,[1],566 ng/mL
same,pseudovirus neutralization IC50,[2],626 ng/mL
"v2130_upsample_20220121_00354 (antibody, V domains shown) VH: EVQLVESGGGLVKPGGSLRLSCAASGFTFRDVWMSWVRQAPGKGLEWVGRIKSKIDGGTTDYAAPVKGRFTISRDDSKNTLYLQMNSLKTEDTAVYYCTTAGSYYYDTRGPELPEGKFDYWGQGTLVTVSS VL: not shown",pseudovirus neutralization IC50,[1],0.515 ng/mL
same,pseudovirus neutralization IC50,[2],0.178 ng/mL
same,pseudovirus neutralization IC50,[11],0.475 ng/mL
same,authentic virus neutralization IC50 (FRNT),[12],3.04 ng/mL
same,authentic virus neutralization IC50 (FRNT),[13],6.23 ng/mL
same,authentic virus neutralization IC50 (FRNT),[14],2.82 ng/mL
same,authentic virus neutralization IC50 (FRNT),[15],4.23 ng/mL
same,authentic virus neutralization IC50 (FRNT),[16],9.65 ng/mL
same,EC50 (read off the curve),[23],~400 ng/mL
